Bridges are numbered along the chain shown (N, C = ends).
Target: KRAS^G12D (GDP) (UniProt P01116 1-189, G12D)
Assay: cell-based or functional assay

- KRAS^G12D SOS GNE IC50 (TR-FRET, SOS-catalysed Bodipy-GDP/GTP exchange): 54 nM
Binder: Ac-RRCPLYISYDPVCRR-NH2 (disulfide 3-13) [peptide 2 (KRpep-2)]

From PMC9289880 (Journal of Medicinal Chemistry, 2022)
